Measurements reported in patent US20260125468A1 (NONA BIOSCIENCES SUZHOU, published 2026).

B1: PR008551, anti-B7H4xCD3 VH(3G11)-Fc-scFv(PR003366), hIgG1(dCH1, KiH, AAA) (bispecific antibody)
chain 1: RVHLAESGGGLVQAGGSLRLSCAASGSRLNDNAMAWFRQAPGKEREFVGSIFWTGGNTYYADAVKGRLTISRDNAKNALYLQMNSLKPEDTAVYYCAASRVVWYYCSGYGCSRAGDYVYWGQGTQVTVSSASEPKSSDKTHTCPPCPAPEAAGAPSVFLFPPKPKDTLMISRTPEVTCVVVDVSHEDPEVKFNWYVDGVEVHNAKTKPREEQYNSTYRVVSVLTVLHQDWLNGKEYKCKVSNKALPAPIEKTISKAKGQPREPQVYTLPPCREEMTKNQVSLWCLVKGFYPSDIAVEWESNGQPENNYKTTPPVLDSDGSFFLYSKLTVDKSRWQQGNVFSCSVMHEALHNHYTQKSLSLSPGK
chain 2: EIVMTQSPASLSVSPGERATLSCRASQSVSSNLAWYQQKPGQAPRLLIYGASTRATGIPARVSGGGSGTEFTLTISSLQSEDFAVYYCQQYKNWPFTFGPGTKLEIKGGGGSGGGGSGGGGSGGGGSQVQLVQSGAEVKKPGSSMRVSCKASEDTFSSYAISWVRQAPGQGLEWMGGTAPIFGTTNYAQKFQGRVTITADKSTSTAYMELSSLRSEDTAVYYCARGGPYFDYWGQGTLVTVSSASEPKSSDKTHTCPPCPAPEAAGAPSVFLFPPKPKDTLMISRTPEVTCVVVDVSHEDPEVKFNWYVDGVEVHNAKTKPREEQYNSTYRVVSVLTVLHQDWLNGKEYKCKVSNKALPAPIEKTISKAKGQPREPQVCTLPPSREEMTKNQVSLSCAVKGFYPSDIAVEWESNGQPENNYKTTPPVLDSDGSFFLVSKLTVDKSRWQQGNVFSCSVMHEALHNHYTQKSLSLSPGK
B2: PR006003, anti-B7H4xCD3 VH(E2)-Fc-scFv(PR003366), hIgG1(dCH1, KiH, LALA) (bispecific antibody)
chain 1: not shown
chain 2: EIVMTQSPASLSVSPGERATLSCRASQSVSSNLAWYQQKPGQAPRLLIYGASTRATGIPARVSGGGSGTEFTLTISSLQSEDFAVYYCQQYKNWPFTFGPGTKLEIKGGGGSGGGGSGGGGSGGGGSQVQLVQSGAEVKKPGSSMRVSCKASEDTFSSYAISWVRQAPGQGLEWMGGTAPIFGTTNYAQKFQGRVTITADKSTSTAYMELSSLRSEDTAVYYCARGGPYFDYWGQGTLVTVSSASEPKSSDKTHTCPPCPAPEAAGGPSVFLFPPKPKDTLMISRTPEVTCVVVDVSHEDPEVKFNWYVDGVEVHNAKTKPREEQYNSTYRVVSVLTVLHQDWLNGKEYKCKVSNKALPAPIEKTISKAKGQPREPQVCTLPPSREEMTKNQVSLSCAVKGFYPSDIAVEWESNGQPENNYKTTPPVLDSDGSFFLVSKLTVDKSRWQQGNVFSCSVMHEALHNHYTQKSLSLSPGK
B3: PR003899, anti-B7H4xCD3 Fab(PR003886)-Fc-scFv(PR003366), hIgG1(KIH, LALA) (bispecific antibody)
heavy: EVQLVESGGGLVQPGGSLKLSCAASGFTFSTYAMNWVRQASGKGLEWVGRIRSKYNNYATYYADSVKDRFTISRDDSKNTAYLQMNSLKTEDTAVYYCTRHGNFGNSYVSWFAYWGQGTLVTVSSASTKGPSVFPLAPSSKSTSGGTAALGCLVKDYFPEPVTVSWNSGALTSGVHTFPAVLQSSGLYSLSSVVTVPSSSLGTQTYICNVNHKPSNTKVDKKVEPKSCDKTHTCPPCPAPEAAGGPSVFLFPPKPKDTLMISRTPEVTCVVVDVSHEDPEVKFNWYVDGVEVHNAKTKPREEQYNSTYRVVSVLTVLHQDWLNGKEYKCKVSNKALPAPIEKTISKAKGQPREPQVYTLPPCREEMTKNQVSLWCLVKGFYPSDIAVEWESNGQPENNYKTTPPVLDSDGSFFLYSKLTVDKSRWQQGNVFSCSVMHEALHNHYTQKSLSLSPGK
light: QAVVTQEPSLTVSPGGTVTLTCRSSTGAVTTSNYANWVQQKPGQAPRGLIGGTNKRAPWTPARFSGSLLGDKAALTLLGAQPEDEAEYFCALWYSNLWVFGGGTKLTVLGQPKAAPSVTLFPPSSEELQANKATLVCLISDFYPGAVTVAWKADSSPVKAGVETTTPSKQSNNKYAASSYLSLTPEQWKSHRSYSCQVTHEGSTVEKTVAPTECS
chain: EIVMTQSPASLSVSPGERATLSCRASQSVSSNLAWYQQKPGQAPRLLIYGASTRATGIPARVSGGGSGTEFTLTISSLQSEDFAVYYCQQYKNWPFTFGPGTKLEIKGGGGSGGGGSGGGGSGGGGSQVQLVQSGAEVKKPGSSMRVSCKASEDTFSSYAISWVRQAPGQGLEWMGGTAPIFGTTNYAQKFQGRVTITADKSTSTAYMELSSLRSEDTAVYYCARGGPYFDYWGQGTLVTVSSASEPKSSDKTHTCPPCPAPEAAGGPSVFLFPPKPKDTLMISRTPEVTCVVVDVSHEDPEVKFNWYVDGVEVHNAKTKPREEQYNSTYRVVSVLTVLHQDWLNGKEYKCKVSNKALPAPIEKTISKAKGQPREPQVCTLPPSREEMTKNQVSLSCAVKGFYPSDIAVEWESNGQPENNYKTTPPVLDSDGSFFLVSKLTVDKSRWQQGNVFSCSVMHEALHNHYTQKSLSLSPGK
B4: PR003733, anti-B7H4xCD3 Fab(PR001848)-Fc-scFv(PR003366), hIgG1(KiH, LALA) (bispecific antibody)
heavy: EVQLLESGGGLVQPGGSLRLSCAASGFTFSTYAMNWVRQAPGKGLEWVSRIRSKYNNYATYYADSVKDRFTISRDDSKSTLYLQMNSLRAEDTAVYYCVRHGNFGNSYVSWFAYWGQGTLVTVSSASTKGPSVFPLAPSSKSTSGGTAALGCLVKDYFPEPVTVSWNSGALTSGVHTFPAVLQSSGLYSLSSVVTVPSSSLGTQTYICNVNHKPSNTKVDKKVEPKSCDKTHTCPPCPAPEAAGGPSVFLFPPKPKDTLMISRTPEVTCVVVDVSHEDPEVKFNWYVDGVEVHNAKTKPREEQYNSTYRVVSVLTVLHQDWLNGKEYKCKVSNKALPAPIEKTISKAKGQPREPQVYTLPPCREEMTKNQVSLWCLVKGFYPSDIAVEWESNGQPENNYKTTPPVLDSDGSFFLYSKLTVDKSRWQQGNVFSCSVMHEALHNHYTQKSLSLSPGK
light: QAVVTQEPSLTVSPGGTVTLTCRSSTGAVTTSNYANWVQQKPGQAPRGLIGGTNKRAPWTPARFSGSLLGDKAALTLLGAQPEDEAEYFCALWYSNLWVFGGGTKLTVLGQPKAAPSVTLFPPSSEELQANKATLVCLISDFYPGAVTVAWKADSSPVKAGVETTTPSKQSNNKYAASSYLSLTPEQWKSHRSYSCQVTHEGSTVEKTVAPTECS
chain: EIVMTQSPASLSVSPGERATLSCRASQSVSSNLAWYQQKPGQAPRLLIYGASTRATGIPARVSGGGSGTEFTLTISSLQSEDFAVYYCQQYKNWPFTFGPGTKLEIKGGGGSGGGGSGGGGSGGGGSQVQLVQSGAEVKKPGSSMRVSCKASEDTFSSYAISWVRQAPGQGLEWMGGTAPIFGTTNYAQKFQGRVTITADKSTSTAYMELSSLRSEDTAVYYCARGGPYFDYWGQGTLVTVSSASEPKSSDKTHTCPPCPAPEAAGGPSVFLFPPKPKDTLMISRTPEVTCVVVDVSHEDPEVKFNWYVDGVEVHNAKTKPREEQYNSTYRVVSVLTVLHQDWLNGKEYKCKVSNKALPAPIEKTISKAKGQPREPQVCTLPPSREEMTKNQVSLSCAVKGFYPSDIAVEWESNGQPENNYKTTPPVLDSDGSFFLVSKLTVDKSRWQQGNVFSCSVMHEALHNHYTQKSLSLSPGK
B5: PR010982, anti-B7H4xCD3 S135-Fc-scFv(PR003366), hIgG1(dCH1, KIH, AAA) (bispecific antibody)
chain 1: EVQLLESGGGLVQPGGSLRLSCAASGRTSGIPAMSWVRQAPGKGLEWVAMAWSGGGTIYADSVKGRFTISRDNSKNTLYLQMNSLRAEDTAVYYCAAGRSTSNRADQYNYWGQGTLVTVSSASEPKSSDKTHTCPPCPAPEAAGAPSVFLFPPKPKDTLMISRTPEVTCVVVDVSHEDPEVKFNWYVDGVEVHNAKTKPREEQYNSTYRVVSVLTVLHQDWLNGKEYKCKVSNKALPAPIEKTISKAKGQPREPQVYTLPPCREEMTKNQVSLWCLVKGFYPSDIAVEWESNGQPENNYKTTPPVLDSDGSFFLYSKLTVDKSRWQQGNVFSCSVMHEALHNHYTQKSLSLSPGK
chain 2: EIVMTQSPASLSVSPGERATLSCRASQSVSSNLAWYQQKPGQAPRLLIYGASTRATGIPARVSGGGSGTEFTLTISSLQSEDFAVYYCQQYKNWPFTFGPGTKLEIKGGGGSGGGGSGGGGSGGGGSQVQLVQSGAEVKKPGSSMRVSCKASEDTFSSYAISWVRQAPGQGLEWMGGTAPIFGTTNYAQKFQGRVTITADKSTSTAYMELSSLRSEDTAVYYCARGGPYFDYWGQGTLVTVSSASEPKSSDKTHTCPPCPAPEAAGAPSVFLFPPKPKDTLMISRTPEVTCVVVDVSHEDPEVKFNWYVDGVEVHNAKTKPREEQYNSTYRVVSVLTVLHQDWLNGKEYKCKVSNKALPAPIEKTISKAKGQPREPQVCTLPPSREEMTKNQVSLSCAVKGFYPSDIAVEWESNGQPENNYKTTPPVLDSDGSFFLVSKLTVDKSRWQQGNVFSCSVMHEALHNHYTQKSLSLSPGK

These binders were tested against T1, CD3 on human T cells (human PBMCs or isolated T cells used as effector cells) (human, UniProt P07766 23-207; P04234 22-171; P09693 23-182) (assay: cell-based or functional assay).
T1 sequence (P07766 23-207, chain 1 of 3): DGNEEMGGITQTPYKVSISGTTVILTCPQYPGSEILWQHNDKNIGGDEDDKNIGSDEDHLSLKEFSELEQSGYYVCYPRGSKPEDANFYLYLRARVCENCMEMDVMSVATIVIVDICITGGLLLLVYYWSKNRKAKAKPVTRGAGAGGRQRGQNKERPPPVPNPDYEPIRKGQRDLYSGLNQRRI
T1 sequence (P04234 22-171, chain 2 of 3): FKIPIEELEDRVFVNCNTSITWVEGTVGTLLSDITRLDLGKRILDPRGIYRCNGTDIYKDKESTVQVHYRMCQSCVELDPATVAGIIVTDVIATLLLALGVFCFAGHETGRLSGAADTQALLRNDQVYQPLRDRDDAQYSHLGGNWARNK
T1 sequence (P09693 23-182, chain 3 of 3): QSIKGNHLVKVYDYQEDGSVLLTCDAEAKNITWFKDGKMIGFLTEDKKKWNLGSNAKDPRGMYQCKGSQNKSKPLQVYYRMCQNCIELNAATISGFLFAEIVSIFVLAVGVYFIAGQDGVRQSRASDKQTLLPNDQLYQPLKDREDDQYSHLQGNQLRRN
In the case of B1, the “EC50 of T cell-mediated cytotoxicity to MDA-MB-468 (RTCA)” value (shortened to “EC50 … (RTCA)”) is reported as 15200 pM and the “Max cytotoxicity (%) of T cell-mediated cytotoxicity to MDA-MB-468 (RTCA)” value (from here on “Max cytotoxicity (%)”) is reported as 90.7%. With B2 the “EC50 … (RTCA)” value was 46.5 pM and the “Max cytotoxicity (%)” value was 95.1%. B3 was tested, and the “EC50 … (RTCA)” value was 112 pM and the “Max cytotoxicity (%)” value was 96.3%. B4 was tested, and the “EC50 … (RTCA)” value was 24.8 pM and the “Max cytotoxicity (%)” value was 95.2%.

Biological target: T1, CD3 on human T cells (human PBMCs or …)
Test: cell-based or functional assay
Remark: another data set of the same source
In the case of B5, the “EC50 of T cell-mediated cytotoxicity to MDA-MB-468 (RTCA, human T cells, E:T 10:1)” value is reported as 247 pM.
